± gives the uncertainty stated by the source.

A short description of the data set: self-splicing fitness, log relative to wild type (ln ratio); higher = more splicing; Tetrahymena group I intron in knt gene, E. coli kanamycin selection, DiMSum; sequences stand for … in CUCUCU…GGAGGGAAAAGUUAUCAGGCAUGCACCUGGUAGCUAGUCUUUAAACCAAUAGAUUGCAUCGGUUUAAAAGGCAAGACCGUCAAAUUGCGGGAAAGGGGUCAACAGCCGUUCAGUACCAAGUCUCAGGGGAAACUUUGAGAUGGCCUUGCAAAGGGUAUGGUAAUAAGCUGACGGACAUGGUCCUAACCACGCAGCCAAGUCCUAAGUCAACAGAUCUUCUGUUGAUAUGGAUGCAGUUCACAGACUAAAUGUCGGUCGGGGAAGAUGUAUUCUUCUCAUAAGAUAUAGUCGGACCUCUCCUUAAUGGGAGCUAGCGGAUGAAGUGAUGCAACACUGGAGCCGCUGGGAACUAAUUUGUAUGCGAAAGUAUAUUGAUUAGUUUUGGAGUACUCGUGGUCG
In a few lines: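 The eight P1ex-region nucleotides of an intron in the knt kanamycin-resistance gene on pET-22b(+) were all randomised and the library put into E. coli BL21(DE3). Six replicate transformations were grown overnight at 37°C or 30°C on LB agar with or without 25 μg/mL kanamycin, together with 100 μg/mL carbenicillin, 50 μM IPTG and 0.2% rhamnose. Colonies were pooled and amplicon-sequenced on an Illumina HiSeq 2500. Fitness from DiMSum is the error-weighted combination of wild-type-normalised replicate fold changes, kanamycin over none.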

On to AUUGAGCAAUAUUACGCACG, for which the “self-splicing fitness (ln)” value (30 °C) is -3.07 ± 0.37.
Consider AAUGAGCAAUAUUACGCGCA, for which the “self-splicing fitness (ln)” value (30 °C) is -2.54 ± 0.34 and the “self-splicing fitness (ln)” value (37 °C) was -1.76 ± 0.49.
The corresponding values for CUAGAGCAAUAUUACGGCUG are 0.203 ± 0.11 and -0.255 ± 0.14.
Taken in the same sequence, the figures for UAACAGCAAUAUUACGAGGC were -3.62 ± 0.2 and -1.97 ± 0.18.
Taken in the same sequence, the figures for CUCAAGCAAUAUUACGAUCA were -1.3 ± 0.3 and -1.09 ± 0.2.
Take GCAUAGCAAUAUUACGAAAA: the “self-splicing fitness (ln)” value (37 °C) was 0.492 ± 0.27.
Turning to AAGAAGCAAUAUUACGUUAG, the “self-splicing fitness (ln)” value was -3.65 ± 0.31 (30 °C) and -2.77 ± 0.22 (37 °C).
For UCCGAGCAAUAUUACGUUGA, the “self-splicing fitness (ln)” value runs as follows: (30 °C) -2.17 ± 0.097; (37 °C) -0.915 ± 0.087.
AGCAAGCAAUAUUACGGGCU: the “self-splicing fitness (ln)” value by setting is: (30 °C) -2.45 ± 0.22; (37 °C) -2.09 ± 0.31.
Consider GCGUAGCAAUAUUACGCGUU, for which the “self-splicing fitness (ln)” value is, setting by setting: (30 °C) -1.14 ± 0.19; (37 °C) -1.55 ± 0.22.
On to GCAUAGCAAUAUUACGAGCU, for which the “self-splicing fitness (ln)” value reads like this: (30 °C) -3.2 ± 0.19; (37 °C) -1.31 ± 0.15.
Consider GGUGAGCAAUAUUACGCUGU, for which the “self-splicing fitness (ln)” value by setting is: (30 °C) -3.68 ± 0.34; (37 °C) -1.64 ± 0.27.
The corresponding values for CAGAAGCAAUAUUACGGCAG are -0.0496 ± 0.063 and 0.33 ± 0.083.
For CGCCAGCAAUAUUACGAUGU, the “self-splicing fitness (ln)” value reads like this: (30 °C) -2.9 ± 0.12; (37 °C) -1.25 ± 0.1.
Taken in the same sequence, the figures for UGUCAGCAAUAUUACGCAUG were -0.692 ± 0.077 and 0.415 ± 0.097.
In the case of UAGAAGCAAUAUUACGAACG, the “self-splicing fitness (ln)” value was -0.0437 ± 0.11 (30 °C) and 0.576 ± 0.14 (37 °C).
Consider UCAGAGCAAUAUUACGUUCA, for which the “self-splicing fitness (ln)” value was -1.71 ± 0.27 (30 °C) and -2.48 ± 0.39 (37 °C).
The corresponding values for CGCCAGCAAUAUUACGCCGA are -2.87 ± 0.23 and -1.65 ± 0.19.
Regarding GGCAAGCAAUAUUACGCUAG, the “self-splicing fitness (ln)” value is -3.39 ± 0.24 (30 °C) and -2.83 ± 0.37 (37 °C).
The corresponding values for UCACAGCAAUAUUACGCGGC are -3.63 ± 0.23 and -2.5 ± 0.28.
Taken in the same sequence, the figures for CCGCAGCAAUAUUACGUUAA were -3.03 ± 0.18 and -2.1 ± 0.2.
The corresponding values for GCUAAGCAAUAUUACGCUUA are -1.74 ± 0.26 and -3.17 ± 0.43.
GGAGAGCAAUAUUACGUCCU: the “self-splicing fitness (ln)” value (30 °C) was -3.2 ± 0.24 and the “self-splicing fitness (ln)” value (37 °C) was -3.27 ± 0.43.
For the sequence CUGGAGCAAUAUUACGCGGA, the “self-splicing fitness (ln)” value (30 °C) was -1.86 ± 0.24.
Take UAGAAGCAAUAUUACGAGGU: the “self-splicing fitness (ln)” value (37 °C) is -2.14 ± 0.2.
Take GCAUAGCAAUAUUACGUCCA: the “self-splicing fitness (ln)” value reads like this: (30 °C) -1.49 ± 0.21; (37 °C) -0.447 ± 0.18.
As to UUGUAGCAAUAUUACGGAGG, the “self-splicing fitness (ln)” value reads like this: (30 °C) -3.76 ± 0.42; (37 °C) -1.87 ± 0.35.
GGAAAGCAAUAUUACGUCUA: the “self-splicing fitness (ln)” value (30 °C) was -0.626 ± 0.11 and the “self-splicing fitness (ln)” value (37 °C) amounted to 0.689 ± 0.14.
Consider GUGGAGCAAUAUUACGUCGC, for which the “self-splicing fitness (ln)” value (37 °C) was -1.71 ± 0.42.
With AACCAGCAAUAUUACGUUAA, the “self-splicing fitness (ln)” value is, setting by setting: (30 °C) -1.83 ± 0.086; (37 °C) -1.26 ± 0.085.
CCCUAGCAAUAUUACGUUAU: the “self-splicing fitness (ln)” value (30 °C) was -4.33 ± 0.26 and the “self-splicing fitness (ln)” value (37 °C) is -2.76 ± 0.19.
For the sequence UUAAAGCAAUAUUACGCGUC, the “self-splicing fitness (ln)” value (30 °C) was -1.08 ± 0.11 and the “self-splicing fitness (ln)” value (37 °C) is -1.66 ± 0.16.
On to GUGAAGCAAUAUUACGAUUC, for which the “self-splicing fitness (ln)” value reads like this: (30 °C) -0.545 ± 0.098; (37 °C) 0.0735 ± 0.17.
With CGCGAGCAAUAUUACGGGCC, the “self-splicing fitness (ln)” value (30 °C) was -2.71 ± 0.27.
CCGGAGCAAUAUUACGCGUC: the “self-splicing fitness (ln)” value (37 °C) is -2.18 ± 0.39.
For the sequence UUGAAGCAAUAUUACGCGGC, the “self-splicing fitness (ln)” value was -1.63 ± 0.13 (30 °C) and -0.671 ± 0.19 (37 °C).
As to CGAAAGCAAUAUUACGUACG, the “self-splicing fitness (ln)” value (30 °C) is -1.5 ± 0.076 and the “self-splicing fitness (ln)” value (37 °C) was -1.27 ± 0.11.
Taken in the same sequence, the figures for UGUCAGCAAUAUUACGGAGG were -1.68 ± 0.072 and -0.948 ± 0.097.
Taken in the same sequence, the figures for UGAAAGCAAUAUUACGCUGA were -2.09 ± 0.15 and -3.15 ± 0.23.
The corresponding values for UAUCAGCAAUAUUACGGGAC are -3.15 ± 0.22 and -2.26 ± 0.25.
For the sequence GGUUAGCAAUAUUACGCUGC, the “self-splicing fitness (ln)” value (30 °C) is -1.38 ± 0.26.
For the sequence ACCAAGCAAUAUUACGUGAA, the “self-splicing fitness (ln)” value by setting is: (30 °C) -2.5 ± 0.08; (37 °C) -1.54 ± 0.091.
The corresponding values for AGGUAGCAAUAUUACGGCCC are -2.77 ± 0.044 and -1.91 ± 0.058.
As to AAUCAGCAAUAUUACGUUCU, the “self-splicing fitness (ln)” value runs as follows: (30 °C) 0.0868 ± 0.061; (37 °C) 0.0857 ± 0.085.
Taken in the same sequence, the figures for CCCGAGCAAUAUUACGGUUG were -3.65 ± 0.15 and -1.81 ± 0.11.
The corresponding values for UCGUAGCAAUAUUACGCUAU are -2.37 ± 0.45 and -2.88 ± 0.4.
For the sequence UUGGAGCAAUAUUACGACAC, the “self-splicing fitness (ln)” value (37 °C) is -2.36 ± 0.37.
Consider ACCAAGCAAUAUUACGUCCU, for which the “self-splicing fitness (ln)” value is -0.777 ± 0.058 (30 °C) and 0.0592 ± 0.075 (37 °C).
As to AAGAAGCAAUAUUACGGGCU, the “self-splicing fitness (ln)” value reads like this: (30 °C) -1.35 ± 0.13; (37 °C) -2.09 ± 0.2.
The corresponding values for GCUAAGCAAUAUUACGUUAU are -1.7 ± 0.072 and -1.48 ± 0.12.
Turning to GACCAGCAAUAUUACGAGUC, the “self-splicing fitness (ln)” value is, setting by setting: (30 °C) -3.82 ± 0.23; (37 °C) -2.06 ± 0.18.
For the sequence GCCUAGCAAUAUUACGGGGC, under “37 °C”, the “self-splicing fitness (ln)” value is -2.81 ± 0.47.
The same measure, in the same setting: under CGUAAGCAAUAUUACGGAUA stands -2.1 ± 0.38.
Consider AAUCAGCAAUAUUACGACCA, for which the “self-splicing fitness (ln)” value (30 °C) was -0.116 ± 0.1 and the “self-splicing fitness (ln)” value (37 °C) was determined as 0.885 ± 0.12.
The corresponding values for CCACAGCAAUAUUACGCGUG are -3.86 ± 0.18 and -2.38 ± 0.14.
Turning to UGAGAGCAAUAUUACGUAGC, the “self-splicing fitness (ln)” value (37 °C) was -2.96 ± 0.4.
On to UUCAAGCAAUAUUACGGGGA, for which the “self-splicing fitness (ln)” value (30 °C) is -1.49 ± 0.1 and the “self-splicing fitness (ln)” value (37 °C) was -0.885 ± 0.1.
Taken in the same sequence, the figures for CGACAGCAAUAUUACGCGAA were -2.75 ± 0.17 and -1.42 ± 0.14.
As for GGGGAGCAAUAUUACGAAAG, for the setting “30 °C”, the “self-splicing fitness (ln)” value was -3.12 ± 0.44.
As to CAGGAGCAAUAUUACGUUUC, the “self-splicing fitness (ln)” value by setting is: (30 °C) -3.21 ± 0.28; (37 °C) -3.11 ± 0.38.
The corresponding values for UCUGAGCAAUAUUACGUGUG are -2.15 ± 0.12 and -1.51 ± 0.12.
The corresponding values for UCGAAGCAAUAUUACGAGCA are -1.77 ± 0.14 and 0.162 ± 0.14.
As to GACUAGCAAUAUUACGAGUU, the “self-splicing fitness (ln)” value runs as follows: (30 °C) -4.75 ± 0.32; (37 °C) -2.74 ± 0.3.
The corresponding values for AUCAAGCAAUAUUACGUACG are -2.54 ± 0.11 and -0.576 ± 0.11.
Taken in the same sequence, the figures for AUGCAGCAAUAUUACGAAGC were -3.21 ± 0.19 and -0.72 ± 0.21.
Taken in the same sequence, the figures for AAGCAGCAAUAUUACGCGCA were -1.73 ± 0.14 and -0.501 ± 0.2.
Take GCCAAGCAAUAUUACGGUCC: the “self-splicing fitness (ln)” value was -2.49 ± 0.11 (30 °C) and -0.771 ± 0.11 (37 °C).
Taken in the same sequence, the figures for UGGCAGCAAUAUUACGUACA were 0.117 ± 0.071 and 0.116 ± 0.1.
As to AGAGAGCAAUAUUACGGACC, the “self-splicing fitness (ln)” value by setting is: (30 °C) -2.79 ± 0.3; (37 °C) -1.05 ± 0.33.
Taken in the same sequence, the figures for GAAGAGCAAUAUUACGAUGC were -2.13 ± 0.16 and -1.9 ± 0.18.
Regarding AUAUAGCAAUAUUACGGGUG, the “self-splicing fitness (ln)” value reads like this: (30 °C) -1.81 ± 0.17; (37 °C) -1.3 ± 0.15.
Taken in the same sequence, the figures for UCAAAGCAAUAUUACGCACU were -2.08 ± 0.11 and -2.5 ± 0.22.
Taken in the same sequence, the figures for UUUAAGCAAUAUUACGUGGC were -3.77 ± 0.23 and -3.57 ± 0.29.
UUCUAGCAAUAUUACGGCGU: the “self-splicing fitness (ln)” value (30 °C) was -1.72 ± 0.13 and the “self-splicing fitness (ln)” value (37 °C) is -1.2 ± 0.14.
The corresponding values for GAGGAGCAAUAUUACGCGCG are -2.81 ± 0.28 and -0.781 ± 0.39.
In the case of AACUAGCAAUAUUACGCCAC, the “self-splicing fitness (ln)” value (37 °C) is -1.79 ± 0.36.
For UGCAAGCAAUAUUACGGAUG, the “self-splicing fitness (ln)” value runs as follows: (30 °C) -1.25 ± 0.065; (37 °C) -0.565 ± 0.078.
Taken in the same sequence, the figures for UUAGAGCAAUAUUACGGGAU were -3.45 ± 0.39 and -2.97 ± 0.4.
Taken in the same sequence, the figures for AGCCAGCAAUAUUACGCACG were -2.34 ± 0.11 and -0.605 ± 0.12.
The corresponding values for GCUUAGCAAUAUUACGUAUA are -1.24 ± 0.072 and -1.15 ± 0.094.

These data come from the supplement of paper PMC7877785.
